{
  "source": "paper PMC7581431",
  "molecular_target": "Lip-NKD-HisC (human (identical sequence in mouse and human)) (UniProt Q969G9)",
  "sequence (Q969G9 whole entry, the tested form may be a part)": "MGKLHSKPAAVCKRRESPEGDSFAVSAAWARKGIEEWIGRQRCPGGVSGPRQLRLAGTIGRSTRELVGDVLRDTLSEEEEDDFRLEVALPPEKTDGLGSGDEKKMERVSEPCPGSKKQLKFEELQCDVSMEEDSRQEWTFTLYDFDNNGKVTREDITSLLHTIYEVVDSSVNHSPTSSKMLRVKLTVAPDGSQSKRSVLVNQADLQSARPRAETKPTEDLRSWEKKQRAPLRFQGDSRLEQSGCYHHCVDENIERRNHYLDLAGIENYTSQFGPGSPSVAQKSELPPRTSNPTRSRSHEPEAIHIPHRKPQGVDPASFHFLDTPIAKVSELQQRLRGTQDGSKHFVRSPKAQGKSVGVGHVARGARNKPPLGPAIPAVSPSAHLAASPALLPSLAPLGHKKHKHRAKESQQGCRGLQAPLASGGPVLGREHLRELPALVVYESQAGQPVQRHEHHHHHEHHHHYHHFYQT",
  "test": "aggregation and co-aggregation assay read by PAGE; purified proteins in 15 mM acetate, 150 mM NaCl, pH 5.0 mixed in different ratios; after 10 min 1 M Tris-HCl pH 8.0 added to 200 mM; after 20 min boiled 10 min in LDS sample buffer; PAGE under denaturing and reducing conditions",
  "data": [
    {"binder": "KHVHHHYIHHHA (domain or fragment)", "note": "[MBP-Axin2-HisC]", "values": [
      {"measurement": "molecules per core (molecules per core)", "result": "< 4"}
    ]}
  ]
}
